Data reported in patent US20230212239A1, “INHIBITORS OF CBL AUTOINHIBITION AND RELATED METHODS” (THE HOSPITAL FOR SICK CHILDREN, priority 2020, published 2023).

Molecular target: T1, CBL TKBD (Homo sapiens, UniProt P22681)
T1 construct: with CBL (47-357) cloned in frame into MCS2 of the same pETDuet-1 vector; made in house
T1 sequence (P22681 47-357): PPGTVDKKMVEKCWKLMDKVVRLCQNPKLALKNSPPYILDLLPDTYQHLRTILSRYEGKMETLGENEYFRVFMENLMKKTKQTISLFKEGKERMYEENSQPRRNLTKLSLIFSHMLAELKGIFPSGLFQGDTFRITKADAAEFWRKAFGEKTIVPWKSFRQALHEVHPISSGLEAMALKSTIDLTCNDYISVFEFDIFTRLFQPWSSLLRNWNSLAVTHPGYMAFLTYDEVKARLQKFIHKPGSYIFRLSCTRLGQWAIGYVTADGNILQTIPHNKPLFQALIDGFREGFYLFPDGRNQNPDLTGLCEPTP
Assay: Co-purification of CBL TKBD with Trx-His-SLAP2/SLAP (Duet co-expression, Ni-NTA, SDS-PAGE)
Type: binding
Description: To validate the CBL/SLAP2 binding interface, a series of mutants in a Duet co-expression vector system was generated for co-purification trials. The SLAP2 sequence was preceded by thioredoxin (Trx) and His-tag fusion proteins to allow co-purification of CBL TKBD that was bound to Trx-His-SLAP2 during the initial affinity chromatography purification step. Surface residues deemed to be important to the CBL/SLAP2 interface, but not CBL function or folding, were mutated to disrupt CBL/SLAP2 binding (FIG. 5C and FIG. 6). In our structure, SLAP2 Gly240 locates close to CBL Met269 and Ala270, such that mutation to a bulky Arg residue (G240R) could cause sterical constraints. Similarly, SLAP2 Leu241 is situated in a hydrophobic cleft composed of CBL Ala223, Trp258, and Val263; mutation to Arg (L241R) was predicted to disturb this binding pocket. Mutation of CBL Ala223 to Arg (A223R) would likewise disrupt this pocket, with CBL/SLAP2 double mutant A223R/L241R predicted to drastically disturb binding through sterical constraints and charge repulsion. (For clarity, CBL mutations herein are indicated in italics, SLAP2 in regular font.) Similarly, single or double mutation of CBL Ser226 or SLAP2 Ser244, whose side chain hydroxyl groups are in close proximity to one another, to charged Glu residues (S226E and S244E) was anticipated to interfere with CBL/SLAP2 binding. Finally, given that SLAP2 binds CBL as an α-helix, mutation of Leu245, located in the center of this α-helix, to proline (L245P) was expected to interrupt the helical structure and thus prevent SLAP2 binding. […] However, double mutation of the CBL/SLAP2 interface (A223R/L241R and S226E/S244E; FIG. 5D, lower panel) was not tolerated, even at low salt concentration.
For co-purification of CBL and SLAP2/SLAP, Duet-His-hSLAP2-CBL 29-261 Δ198-229 and 29-254 Δ198-229, Duet-His-Δlinker-hSLAP2-CBL WT and point mutants, and Duet-His-mSLAP-CBL WT and point mutants were overexpressed in E. coli BL-21 as above or TKB1 competent cells (Stratagene) as per manufacturer’s instructions, and cells harvested as above (except 100 mL of LB, overnight at 16-18° C., and 0.35-0.5 mM IPTG induction). Cell pellets were resuspended in either high or low salt (as for high salt except 25 mM HEPEs pH 7.5, 150 mM NaCl) lysis buffer and purified as above on Ni-NTA agarose (Qiagen) with wash buffer (25 mM HEPEs pH 7.5, 150 mM NaCl, 2% glycerol, 20 mM imidazole, 10 mM βME). Bead slurry was mixed with SDS 2X loading buffer (125 mM Tris pH 6.8, 4% SDS, 20% glycerol, 0.715 M βME, bromophenol blue), boiled, and analyzed by 10 or 12.5% SDS-PAGE, stained with Coomassie blue.

Molecule | CBL TKBD co-purification (conditions where SLAP2 was tyrosine phosphorylated (TKB1), low salt) | CBL TKBD co-purification (high salt conditions (0.5 M NaCl))
pSLAP2: tyrosine phosphorylated SLAP2 expressed in TKB1 cells (protein, UniProt Q9H6Q3 2-261, looked up, tyrosine phosphorylated, tyrosine phosphorylated SLAP2 expressed in TKB1 cells) Src-like-adapter 2: GSLPSRRKSLPSPSLSSSVQGQGPVTMEAERSKATAVALGSFPAGGPAELSLRLGEPLTIVSEDGDWWTVLSEVSGREYNIPSVHVAKVSHGWLYEGLSREKAEELLLLPGNPGGAFLIRESQTRRGSYSLSVRLSRPASWDRIRHYRIHCLDNGWLYISPRLTFPSLQALVDHYSELADDICCLLKEPCVLQRAGPLPGKDIPLPVTVQRTPLNWKELDSSLLFSEAATGEESLLSEGLRESLSFYISLNDEAVSLDDA | co-purified | –
Trx-His(6)-Δlinker-hSLAP2 (human SLAP2 29-261) (other, also called Trx-His-SLAP2; SLAP2 WT; not shown: N-terminal thioredoxin (Trx)-His(6)-TEV-site tag and linker of the modified pET32a (Δlinker version)) EAERSKATAVALGSFPAGGPAELSLRLGEPLTIVSEDGDWWTVLSEVSGREYNIPSVHVAKVSHGWLYEGLSREKAEELLLLPGNPGGAFLIRESQTRRGSYSLSVRLSRPASWDRIRHYRIHCLDNGWLYISPRLTFPSLQALVDHYSELADDICCLLKEPCVLQRAGPLPGKDIPLPVTVQRTPLNWKELDSSLLFSEAATGEESLLSEGLRESLSFYISLNDEAVSLDDA | – | co-purified
